Laboratory results: patent publication US10087225B2, “Formulation of MK2 inhibitor peptides” (MOERAE MATRIX, INC., priority 2015, dated 2018)

Key:
Test in all cases: Kinase Profiling Assay
Type in all cases: biochemical
Details in all cases: for % activity: 100 μM
[1] = target: PTK5(h) (Homo sapiens, UniProt P42685)
[2] = target: cKit(h) (Homo sapiens, UniProt P10721)
[3] = target: T1, EphB1(h) (Homo sapiens, UniProt P54762)
T1 sequence (P54762 18-984): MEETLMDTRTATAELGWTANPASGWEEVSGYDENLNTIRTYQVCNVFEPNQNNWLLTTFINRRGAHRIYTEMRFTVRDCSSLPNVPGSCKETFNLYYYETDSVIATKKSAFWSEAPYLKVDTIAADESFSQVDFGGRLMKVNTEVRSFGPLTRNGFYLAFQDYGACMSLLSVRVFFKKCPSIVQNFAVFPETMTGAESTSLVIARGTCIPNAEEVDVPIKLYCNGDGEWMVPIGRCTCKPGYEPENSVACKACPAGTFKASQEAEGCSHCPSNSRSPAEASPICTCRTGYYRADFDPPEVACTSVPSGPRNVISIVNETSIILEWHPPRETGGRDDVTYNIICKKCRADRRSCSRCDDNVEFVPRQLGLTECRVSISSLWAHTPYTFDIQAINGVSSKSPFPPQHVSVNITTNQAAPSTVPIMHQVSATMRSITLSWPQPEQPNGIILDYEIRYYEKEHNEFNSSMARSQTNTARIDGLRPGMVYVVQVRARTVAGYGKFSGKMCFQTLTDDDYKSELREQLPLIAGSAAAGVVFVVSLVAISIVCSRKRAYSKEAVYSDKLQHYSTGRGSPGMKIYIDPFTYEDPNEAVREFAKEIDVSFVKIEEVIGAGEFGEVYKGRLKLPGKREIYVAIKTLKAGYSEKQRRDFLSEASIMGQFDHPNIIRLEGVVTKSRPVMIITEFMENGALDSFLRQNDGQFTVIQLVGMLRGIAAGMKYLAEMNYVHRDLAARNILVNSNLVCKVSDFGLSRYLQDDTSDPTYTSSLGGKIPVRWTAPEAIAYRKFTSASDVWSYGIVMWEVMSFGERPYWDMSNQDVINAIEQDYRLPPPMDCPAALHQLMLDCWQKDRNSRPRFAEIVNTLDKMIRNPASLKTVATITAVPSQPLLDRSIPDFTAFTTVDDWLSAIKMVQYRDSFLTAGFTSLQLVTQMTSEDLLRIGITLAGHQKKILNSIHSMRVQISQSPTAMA

[4] = target: T2, PKD2(h) (Homo sapiens, UniProt Q9BZL6)
T2 sequence (Q9BZL6 1-878): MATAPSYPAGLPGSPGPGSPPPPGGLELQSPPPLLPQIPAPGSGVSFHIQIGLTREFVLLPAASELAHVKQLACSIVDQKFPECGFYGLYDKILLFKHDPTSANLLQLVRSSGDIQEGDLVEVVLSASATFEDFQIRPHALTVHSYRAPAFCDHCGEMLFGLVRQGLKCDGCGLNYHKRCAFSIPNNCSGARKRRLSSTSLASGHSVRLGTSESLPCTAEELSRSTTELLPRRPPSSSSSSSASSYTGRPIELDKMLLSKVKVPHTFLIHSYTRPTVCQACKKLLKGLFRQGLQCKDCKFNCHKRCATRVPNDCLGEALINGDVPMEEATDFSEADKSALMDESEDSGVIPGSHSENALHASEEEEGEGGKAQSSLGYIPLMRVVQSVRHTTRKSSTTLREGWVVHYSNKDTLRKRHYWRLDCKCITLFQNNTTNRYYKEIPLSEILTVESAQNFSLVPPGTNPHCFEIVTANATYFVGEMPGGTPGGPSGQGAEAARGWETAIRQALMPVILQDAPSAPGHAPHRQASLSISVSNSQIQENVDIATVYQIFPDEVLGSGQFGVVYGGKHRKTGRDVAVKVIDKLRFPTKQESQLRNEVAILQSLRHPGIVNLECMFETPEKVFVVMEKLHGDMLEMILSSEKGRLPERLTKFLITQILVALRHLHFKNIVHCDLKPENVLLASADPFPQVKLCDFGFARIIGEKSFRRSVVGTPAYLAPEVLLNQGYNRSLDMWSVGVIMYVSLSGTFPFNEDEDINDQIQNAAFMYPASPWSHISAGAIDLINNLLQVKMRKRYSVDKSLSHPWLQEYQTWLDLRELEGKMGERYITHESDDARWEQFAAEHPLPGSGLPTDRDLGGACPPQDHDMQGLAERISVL

[5] = target: Met(Y1248C)(h) (Homo sapiens, UniProt P08581, Y1230C)
[6] = target: SRPK2(h) (Homo sapiens, UniProt P78362)
[7] = target: FGFR3(h) (Homo sapiens, UniProt P22607)
[8] = target: PAK4(h) (Homo sapiens, UniProt O96013)
PAK4(h), sequence (O96013 whole entry): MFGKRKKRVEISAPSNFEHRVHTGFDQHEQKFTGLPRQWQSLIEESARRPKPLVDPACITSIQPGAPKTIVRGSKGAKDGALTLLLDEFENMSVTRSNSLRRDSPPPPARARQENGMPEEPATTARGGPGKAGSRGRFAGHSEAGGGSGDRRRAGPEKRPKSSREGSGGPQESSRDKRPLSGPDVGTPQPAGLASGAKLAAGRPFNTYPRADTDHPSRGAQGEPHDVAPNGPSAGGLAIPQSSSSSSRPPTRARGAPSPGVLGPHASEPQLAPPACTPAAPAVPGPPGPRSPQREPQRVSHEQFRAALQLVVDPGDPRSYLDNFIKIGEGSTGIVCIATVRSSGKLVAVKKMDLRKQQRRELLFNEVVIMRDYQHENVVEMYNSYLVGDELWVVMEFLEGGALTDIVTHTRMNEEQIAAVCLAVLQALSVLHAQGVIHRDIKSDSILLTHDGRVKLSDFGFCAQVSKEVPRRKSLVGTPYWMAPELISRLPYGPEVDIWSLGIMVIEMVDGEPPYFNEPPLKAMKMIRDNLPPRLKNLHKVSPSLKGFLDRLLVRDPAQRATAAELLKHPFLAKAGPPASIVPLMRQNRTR

FGFR3(h), sequence (P22607 23-806): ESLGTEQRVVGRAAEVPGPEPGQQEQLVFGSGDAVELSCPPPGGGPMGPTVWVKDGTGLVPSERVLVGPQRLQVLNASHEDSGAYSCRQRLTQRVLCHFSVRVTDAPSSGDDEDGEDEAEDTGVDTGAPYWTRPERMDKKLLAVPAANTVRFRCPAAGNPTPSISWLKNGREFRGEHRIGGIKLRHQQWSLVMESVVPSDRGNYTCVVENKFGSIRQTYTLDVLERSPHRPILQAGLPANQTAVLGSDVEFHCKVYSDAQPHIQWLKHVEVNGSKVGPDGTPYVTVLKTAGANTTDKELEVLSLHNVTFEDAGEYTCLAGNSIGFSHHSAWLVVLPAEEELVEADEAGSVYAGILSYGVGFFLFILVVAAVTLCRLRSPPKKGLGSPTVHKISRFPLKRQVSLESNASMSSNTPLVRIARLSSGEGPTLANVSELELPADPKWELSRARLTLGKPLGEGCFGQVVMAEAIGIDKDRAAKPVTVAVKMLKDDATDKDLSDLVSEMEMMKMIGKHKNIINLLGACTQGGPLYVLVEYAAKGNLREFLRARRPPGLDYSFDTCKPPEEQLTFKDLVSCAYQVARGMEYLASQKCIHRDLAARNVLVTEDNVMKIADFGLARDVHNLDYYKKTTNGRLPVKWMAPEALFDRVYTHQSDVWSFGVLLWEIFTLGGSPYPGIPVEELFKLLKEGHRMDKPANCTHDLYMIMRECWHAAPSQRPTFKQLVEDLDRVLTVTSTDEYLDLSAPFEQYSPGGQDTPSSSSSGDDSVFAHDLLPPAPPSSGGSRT
SRPK2(h), sequence (P78362 whole entry): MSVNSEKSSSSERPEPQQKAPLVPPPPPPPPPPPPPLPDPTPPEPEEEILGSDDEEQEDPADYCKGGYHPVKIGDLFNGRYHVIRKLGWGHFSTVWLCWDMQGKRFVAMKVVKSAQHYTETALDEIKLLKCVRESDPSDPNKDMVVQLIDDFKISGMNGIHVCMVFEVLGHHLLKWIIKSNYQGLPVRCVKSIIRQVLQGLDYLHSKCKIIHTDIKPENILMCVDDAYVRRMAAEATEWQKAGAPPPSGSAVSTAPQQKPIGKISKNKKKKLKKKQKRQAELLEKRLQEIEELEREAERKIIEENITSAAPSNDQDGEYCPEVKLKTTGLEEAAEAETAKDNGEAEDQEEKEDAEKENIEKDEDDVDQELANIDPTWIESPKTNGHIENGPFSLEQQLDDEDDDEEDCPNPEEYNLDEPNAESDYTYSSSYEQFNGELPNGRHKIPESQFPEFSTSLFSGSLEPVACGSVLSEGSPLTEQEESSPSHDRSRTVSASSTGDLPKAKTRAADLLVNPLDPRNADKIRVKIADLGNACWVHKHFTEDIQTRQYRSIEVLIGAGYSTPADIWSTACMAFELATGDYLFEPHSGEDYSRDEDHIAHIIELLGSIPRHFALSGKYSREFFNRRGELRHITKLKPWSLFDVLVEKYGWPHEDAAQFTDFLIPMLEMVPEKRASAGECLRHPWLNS
PTK5(h), sequence (P42685 whole entry): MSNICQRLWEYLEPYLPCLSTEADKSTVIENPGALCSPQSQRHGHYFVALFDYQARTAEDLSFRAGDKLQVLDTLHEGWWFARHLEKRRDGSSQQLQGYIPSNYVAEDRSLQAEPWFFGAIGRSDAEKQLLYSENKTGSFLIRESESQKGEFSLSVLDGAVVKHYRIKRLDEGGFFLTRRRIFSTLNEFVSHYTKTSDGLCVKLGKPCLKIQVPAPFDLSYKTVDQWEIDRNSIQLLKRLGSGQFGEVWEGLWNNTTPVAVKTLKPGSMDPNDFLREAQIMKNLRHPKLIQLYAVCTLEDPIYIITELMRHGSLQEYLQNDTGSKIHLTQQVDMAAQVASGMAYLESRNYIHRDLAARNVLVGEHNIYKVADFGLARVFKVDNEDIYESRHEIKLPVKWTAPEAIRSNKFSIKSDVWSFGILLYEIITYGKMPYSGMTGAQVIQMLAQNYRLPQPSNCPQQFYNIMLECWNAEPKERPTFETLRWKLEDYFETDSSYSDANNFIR

Row | Substance | activity at 100 µM [1] | activity at 100 µM [2] | activity at 100 µM [3] | activity at 100 µM [4] | activity at 100 µM [5] | activity at 100 µM [6] | activity at 100 µM [7] | activity at 100 µM [8] | % activity [1] | % activity [2] | % activity [3] | % activity [4] | % activity [5] | % activity [6] | % activity [7] | % activity [8]
1 | H-YARAAARQARAKALARQLGVAA-OH [MMI-0100] | 135% | 95% | 99% | 84% | 77% | 92% | 73% | 92% |  |  |  |  |  |  |  | 
2 | HRRIKAWLKKIKALARQLGVAA (Mammalian) [MMI-0500] |  |  |  |  |  |  |  |  | 96% | 45% | 37% | 10% | 73% | 80% | 10% | 86%
3 | YARAAARQARAKALNRQLGVA (Mammalian) [MMI-0200] |  |  |  |  |  |  |  |  | 108% | 110% | 95% | 78% | 141% | 100% | 208% | 98%
